Results published in patent US20260207759A1, “COMPOSITION OF CD40-BINDING MOLECULE AND PHARMACEUTICAL USE THEREOF” (SUZHOU SUNCADIA BIOPHARMACEUTICALS CO., LTD., priority 2022, published 2026).

Columns and labels:
[1] = tested on: human CD40 transgenic mice; experiment: Mouse T cell-dependent humoral immune response (TDAR) model, anti-KLH specific IgG; type: in vivo; conditions: 0.3 mpk BIW ip, hCD40 transgenic mice (IgG1 control 1 mg/kg)
Description: On day 0 of the experiment, one of the mice in each group was subjected to blood collection followed by intraperitoneal injection. On day 1, each mouse was intraperitoneally injected with 50 μg of KLH (KLH:complete Freund's adjuvant (CFA)=1:1 emulsified immune complex) for immunization. On day 15 of the experiment, each mouse was intraperitoneally injected with 50 μg of KLH (KLH:incomplete Freund's adjuvant (IFA)=1:1 emulsified immune complex) for a second immunization. Each group was intraperitoneally injected twice a week, and blood samples of about 150 μL were collected from the orbital venous plexus on days 7, 14, 21, and 28. Whole blood was left to stand at room temperature for 1-4 h and centrifuged at 7000 rpm at 4° C. for 10 min to separate serum, and the serum was stored at −80° C. for later use.
Mouse serum was separated weekly and assayed by ELISA for the anti-KLH specific IgG level.

CD40 [2] = biological target: T1, CD40 (Homo sapiens, UniProt P25942); experiment: Reporter gene cell activity of chimeric anti-CD40 antibodies (HEK-Blue CD40L cells, CD40L-induced SEAP); type: cell-based; design: host or cells: HEK-Blue CD40L cells; conditions: CD40L-stimulated HEK-Blue CD40L cells
Description: HEK-Blue CD40L cells were purchased from Invivogen (Cat. #hkb-cd40). The cells were stably transfected with the human CD40 gene and the NF-kB-mediated SEAP genome. The activation level of the CD40 signaling pathway can be characterized by detecting the secreted SEAP in the supernatant using QUANTI-Blue, the substrate of SEAP. In this experiment, the in vitro antagonist activity of anti-CD40 antibodies was assessed according to IC50 by detecting the activation of HEK-Blue CD40L cells by CD40L. HEK-Blue CD40L cells were cultured in a DMEM medium containing 10% FBS, 100 μg/mL Zeocin, and 30 μg/mL Blasticidin, and passaged 2-3 times in a week at a ratio of 1:5 or 1:10. During passaging, the medium was pipetted off, and the cell layer was rinsed with 5 mL of 0.25% pancreatin. Then the pancreatin was pipetted off, the cells were digested in an incubator for 3-5 min, and then a fresh medium was added to resuspend cells. 100 μL of cell suspension was added to a 96-well cell culture plate at a density of 5×10^5 cells/mL. The medium was DMEM containing 10% FBS, 100 μg/mL Zeocin, and 30 μg/mL Blasticidin. Only 100 μL of sterile water was added to the peripheral wells of the 96-well plate. […] The absorbance at 630 nm was measured with a microplate reader (Thermo MultiSkanFc), and IC50 values were calculated and used to assess the in vitro cell activity of the anti-CD40 antibodies.

CD40 [3] = biological target: T1, CD40; experiment: B cell activation assay system (human PBMCs, CD40L-induced CD19+CD69+); type: cell-based; design: endogenous in cells; host or cells: human PBMCs (B cells); DCs differentiated from human CD14+ monocytes; conditions: CD40L stimulation overnight
Description: CD40 is highly expressed in B cells, and CD40L, upon binding to CD40, can induce B cell activation and up-regulate the expression of a series of activation markers. CD40 antagonistic antibodies block the binding of CD40L to CD40, thereby eliminating the immune activation process of B cells.
Human PBMCs were plated at 2E5 cells/well and 50 μL/well into a 96-well cell culture plate (the medium was RPMI-1640 containing 10% FBS and 1% penicillin-streptomycin). Serially diluted test antibodies were added at 50 μL/well, and the cells were co-incubated at 37° C. in 5% CO2 for 0.5 h. CD40L-his and an anti-His antibody were added to each well for overnight stimulation. The following day, the plate was centrifuged, the supernatant was removed, and the cells were washed twice with FACS buffer and stained at room temperature for 15 min with 100 μL of Fixable viability dye EF780 (Invitrogen, 65086514) diluted at 1:1000. The cells were washed twice and then blocked at room temperature for 10 min with 100 μL of human Fc blocker (BD, 564220) diluted at 1:200. After centrifugation, the cells were incubated at 4° C. for 0.5 h with flow cytometry antibodies (PerCP/Cyanine5.5 anti-human CD19 (Biolegend, 302230), and APC anti-human CD69 (Biolegend, 310910)) diluted at 1:200. After centrifugation, the supernatant was removed, the cells were washed twice with FACS buffer and then resuspended in 200 μL of PBS, and the fluorescence intensity on the cell surface was measured by a flow cytometer (BD FACS Celesta).
With reference to the method in Example 10, the inhibitory activity of the anti-CD40 antibody 9E6-L4H2-AAYTE carrying the AAYTE mutation in the Fc in the B cell activation assay system was measured.

CD40 [4] = biological target: T1, CD40; experiment: Inhibition of CD40 reporter gene cell activity (HEK-Blue CD40L cells), humanized antibodies; type: cell-based; design: host or cells: HEK-Blue CD40L cells
Description: HEK-Blue CD40L cells were purchased from Invivogen (Cat. #hkb-cd40). The cells were stably transfected with the human CD40 gene and the NF-kB-mediated SEAP genome. The activation level of the CD40 signaling pathway can be characterized by measuring the amount of secreted SEAP in the supernatant using QUANTI-Blue, the substrate of SEAP. In the assays, the inhibitory effects of the CD40 antagonistic antibodies on the CD40L-induced HEK-Blue CD40L cell activation were measured, and the in vitro cell activity of the CD40 antagonistic antibodies was assessed based on IC50.
HEK-Blue CD40L cells were cultured in a DMEM medium containing 10% FBS, 100 μg/mL Normocin, 100 μg/mL Zeocin, and 30 µg/mL Blasticidin, with 2-3 passages a week. HEK-Blue CD40L cells were plated at 5E4 cells/well into a 96-well cell culture plate (the medium was DMEM containing 10% FBS and 100 μg/mL Normocin) and incubated overnight. […] CD40L-his (R&D, 2706-CL-025) and anti-His antibody (R&D, MAB050-500) were added, and the plate was incubated overnight. After cell centrifugation, 20 μL of the cell supernatant was transferred to a new 96-well white plate, and 180 μL of QUANTI-Blue substrate solution was added. […] The absorbance at 620 nm was measured with an Envision microplate reader, and IC50 values were calculated and used to assess the in vitro cell activity of the CD40 antagonistic antibodies.

T1 sequence (P25942 21-277): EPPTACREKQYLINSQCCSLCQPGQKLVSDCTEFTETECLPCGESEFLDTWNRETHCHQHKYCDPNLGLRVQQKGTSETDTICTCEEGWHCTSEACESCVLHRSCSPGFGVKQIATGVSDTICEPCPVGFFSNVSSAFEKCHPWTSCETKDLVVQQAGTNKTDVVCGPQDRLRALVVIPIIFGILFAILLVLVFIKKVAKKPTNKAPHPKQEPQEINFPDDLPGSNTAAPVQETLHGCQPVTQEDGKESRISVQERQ

CFZ533: anti-CD40 antagonistic antibody CFZ533 (i.e., iscalimab), positive control, variable regions from U.S. Pat. No. 8,277,810B
anti-KLH specific IgG, Day 7 [1]: 0.04 ± 0.01 | anti-KLH specific IgG, Day 14 [1]: 30.9 ± 10.8 | anti-KLH specific IgG, Day 21 [1]: 845 ± 423 | anti-KLH specific IgG, Day 28 [1]: 3043 ± 1600 | IC50 (CD40 [2]): 0.272 nM | CD19+CD69+ % Maximum inhibition rate (CD40 [3]): 95% | CD19+CD69+ MFI Maximum inhibition rate (CD40 [3]): 110% | IC50 (CD40 [3]; read-out: CD19+CD69+ % IC50): 0.14 nM | IC50 (CD40 [3]; read-out: CD19+CD69+ MFI IC50): 0.07 nM | IC50 (CD40 [4]; Experiment 1): 0.36 nM | IC50 (CD40 [4]; Experiment 2): 0.35 nM
